Reference: patent US20250282879A1 (CILAG GMBH INTERNATIONAL, published 2025)
Positions count from the first letter of the chain named. Numbers in names are those of the source. Read-outs that look alike come from different tables or passages of the source.

Tests used:
[1] = target: T1, human IL-4R on cells (HEK-Blue IL-4/IL-13 cells, human PBMC, human whole blood) (human, UniProt P24394 26-825); test: cell-based or functional assay
[2] = target: T1, human IL-4R on cells (HEK-Blue …); test: cell-based or functional assay; remark: listed apart in the source
[3] = target: T1, human IL-4R on cells (HEK-Blue …); test: cell-based or functional assay; remark: listed apart in the source
[4] = target: recombinant cynomolgus monkey IL-31 (ECD with His Tag, Sino Biological) (cynomolgus monkey); test: cell-based or functional assay
[5] = target: T1, human IL-4R on cells (HEK-Blue …); test: cell-based or functional assay; remark: listed apart in the source
[6] = target: T2, recombinant human IL-4R protein (ECD with His Tag, Sino Biological) (human, UniProt P24394 26-232); test: SPR, Morrison captured via anti-human IgG-Fc, IL-4R ECD-His analyte
T2 construct: extracellular domain; bought; also called human IL-4R ECD; not shown: His Tag
Experimental: (§1) Binding kinetics (including affinity) of the bispecific Morrison-H (PRO2198, PRO2199) and Morrison-L (PRO2206, PRO2207) molecules to recombinant human IL-4R protein (ECD with His Tag, Sino Biological) were determined by SPR analysis on a T200 device (Biacore, Cytiva). In this SPR experiment, Morrison molecules were captured via an anti-human IgG-Fc antibody (Human Antibody Capture Kit; Biacore, Cytiva) covalently immobilized to a carboxylmethylated dextran surface (CM5 sensorchip; Biacore, Cytiva) and a titration series of human IL-4R ECD was injected as analyte. After each analyte injection cycle, the sensor chip was regenerated (MgCl₂), and new Morrison antibody was subsequently re-captured. […] The apparent dissociation (kd) and association (kₐ) rate constants and the apparent dissociation equilibrium constant (KD) were calculated with the Biacore analysis software (Biacore Evaluation software Version 3.2, Cytiva) using one-to-one Langmuir binding model and quality of the fits was monitored based on Chi2 and U-value, which are measures for the quality of the curve fitting. The binding level was calculated as the maximum stability binding achieved normalized to the theoretical Rmax. Cross-reactivity to cynomolgus monkey IL-4R was measured using the same setup as for the analysis of human IL-4R kinetics, with the difference that recombinant cynomolgus monkey IL-4R (ECD with His-tag, Acro Biosystems) protein was used as analyte instead of human IL-4R.

[7] = target: T3, recombinant cynomolgus monkey IL-4R (ECD with His-tag, Acro Biosystems) (cynomolgus monkey, UniProt A0A2K5V556 26-232); test: as above
T3 construct: bought; also called cynomolgus IL-4R
T3 sequence (A0A2K5V556 entry or part of it limits assumed): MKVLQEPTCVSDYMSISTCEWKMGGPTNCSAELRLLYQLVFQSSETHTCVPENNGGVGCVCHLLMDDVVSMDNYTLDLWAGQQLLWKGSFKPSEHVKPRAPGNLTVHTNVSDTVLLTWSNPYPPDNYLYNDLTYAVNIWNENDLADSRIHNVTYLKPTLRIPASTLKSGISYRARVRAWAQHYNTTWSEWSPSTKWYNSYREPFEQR
Experimental: as §1

[8] = target: T4, human IL-4R on transfected HEK293T cells (human, UniProt P24394 26-825); test: flow cytometry, transfected HEK293T cells
T4 construct: whole, on cells; also called human IL-4R-expressing HEK293T cells; not shown: V5 Tag fused to the N-terminus of the expression construct
From the text: (§2) To test binding of the Morrison-H and Morrison-L antibodies PRO2198, PRO2199, PRO2206 and PRO2207 to human or cynomolgus IL-4R-expressing HEK293T cells, HEK293T cells were transfected with human and cynomolgus IL-4R plasmids and mock plasmid using Lipofectamine3000. Binding of an antibody targeting V5 Tag, which is fused to the N-terminus of human and cynomolgus IL-4R expression constructs, would confirm successful expression of both targets and was thus used as a positive control for plasma membranous binding. The Morrison-H molecule PRO2077 was used as negative control for cynomolgus IL-4R binding since this molecule had not shown any cross-reactivity to cynomolgus IL-4R (see section 5.3.).
(§3) 50,000 transfected HEK293T cells per well were seeded in a 96-well plate. 5-fold serial dilutions of the Morrison-H and Morrison-L antibodies PRO2198, PRO2199, PRO2206 and PRO2207 and of the control molecule PRO2077, which is not cross-reactive to cynomolgus IL-4R, were added at concentrations ranging from 5,000 to 0.32 ng/ml to the plates and incubated for 60 min at 4° C. on a shaker. Supernatants were removed and detection reagent was added for flow cytometry analysis. The geometric mean of the APC fluorescence intensity of single cells was calculated.

[9] = target: T5, cynomolgus IL-4R on transfected HEK293T cells (cynomolgus monkey, UniProt A0A2K5V580 33-832); test: flow cytometry, transfected HEK293T cells
T5 construct: whole, on cells; also called cynomolgus IL-4R-expressing HEK293T cells; not shown: V5 Tag fused to the N-terminus of the expression construct
T5 sequence (A0A2K5V580 entry or part of it): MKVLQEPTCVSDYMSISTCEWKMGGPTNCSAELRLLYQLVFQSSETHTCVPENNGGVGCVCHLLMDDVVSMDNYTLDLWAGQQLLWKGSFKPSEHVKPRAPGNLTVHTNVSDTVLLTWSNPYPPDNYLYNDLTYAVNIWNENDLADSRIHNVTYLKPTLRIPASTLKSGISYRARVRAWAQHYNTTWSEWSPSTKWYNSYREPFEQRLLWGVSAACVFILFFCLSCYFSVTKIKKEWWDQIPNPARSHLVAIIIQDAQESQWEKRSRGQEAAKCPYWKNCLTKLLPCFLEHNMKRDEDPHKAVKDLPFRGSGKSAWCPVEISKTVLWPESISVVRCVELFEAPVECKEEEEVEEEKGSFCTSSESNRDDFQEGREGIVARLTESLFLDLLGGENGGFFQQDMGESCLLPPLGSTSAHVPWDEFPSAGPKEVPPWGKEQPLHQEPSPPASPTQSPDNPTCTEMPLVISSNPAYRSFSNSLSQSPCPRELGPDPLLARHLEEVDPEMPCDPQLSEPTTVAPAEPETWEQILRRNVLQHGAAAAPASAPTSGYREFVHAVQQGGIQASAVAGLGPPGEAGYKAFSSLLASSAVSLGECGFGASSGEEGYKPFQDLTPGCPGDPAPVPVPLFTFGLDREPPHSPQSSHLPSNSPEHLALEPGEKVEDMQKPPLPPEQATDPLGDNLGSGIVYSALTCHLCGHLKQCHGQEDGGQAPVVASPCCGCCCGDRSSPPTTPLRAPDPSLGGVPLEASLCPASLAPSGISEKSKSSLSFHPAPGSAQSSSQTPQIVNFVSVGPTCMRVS
From the text: as §2, §3

[10] = target: T6, recombinant human IL-31 protein (Peprotech) (human, UniProt Q6EBC2 24-164); test: cell-based or functional assay
T6 sequence (looked up): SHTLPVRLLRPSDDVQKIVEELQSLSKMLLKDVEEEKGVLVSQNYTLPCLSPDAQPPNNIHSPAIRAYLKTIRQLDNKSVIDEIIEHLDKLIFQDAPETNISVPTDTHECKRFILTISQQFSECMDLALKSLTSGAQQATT

[11] = target: T6, recombinant human IL-31 protein …; test: cell-based or functional assay; remark: listed apart in the source
cynomolgus IL-4R-Fc = target: T7, cynomolgus IL-4R-Fc (cynomolgus monkey (Macaca fascicularis), UniProt A0A2K5V580 33-239); test: SPR, capture setup, cynomolgus IL-4R-Fc captured
T7 construct: also called cynomolgus IL-4R capture setup; not shown: Fc part
Experimental: (§4) Affinity of the optimized anti-IL-4R scFvs PRO1898 and PRO1899 to human IL-4R was determined by SPR analysis on a T200 device (Biacore, GE Healthcare), as described above in section 1.2.2. The scFvs were measured using a dose response multi-cycle kinetic assay with seven analyte concentrations ranging from 0.12 to 90 nM diluted in running buffer. Obtained sensorgrams were fitted using a 1:1 binding model.
Affinity of the optimized anti-IL-4R scFvs PRO1898 and PRO1899 to cynomolgus IL-4R was measured using the same setup as for the analysis of human IL-4R affinities, with the difference that cynomolgus IL-4R-Fc was captured instead of human IL-4R-Fc, as described above in section 1.2.2.

[12] = target: T8, human IL-4R (form not stated) (human, UniProt P24394 26-232, limits assumed); test: competition ELISA, hIL-4/IL-4R
T8 construct: whole entry named; also called hIL-4R
Experimental: Potency of the optimized anti-IL-4R scFvs PRO1898 and PRO1899 scFvs was determined using a competitive ELISA. The potency of each scFv to inhibit the interaction between human IL-4 and human IL-4R was assessed by ELISA as described in section 1.2.2. Similarly, to the stat-6 reporter gene assay, individual IC₅₀ values on each plate were calibrated against the IC₅₀ of the reference molecule dupilumab.

Human IL-4R-Fc [13] = target: T9, Human IL-4R-Fc (human, UniProt P24394 26-232); test: SPR, hIL-4R-Fc captured, scFv analyte
T9 construct: also called human IL-4R (scFv SPR, capture setup); not shown: Fc part
Experimental: as §4

[14] = target: T1, human IL-4R on cells (HEK-Blue …); test: cell-based or functional assay; remark: listed apart in the source
marmoset IL-4R ECD = target: T10, marmoset IL-4R ECD (marmoset (Callithrix jacchus), UniProt Q0PIT7 26-232); test: SPR, direct setup, marmoset IL-4R ECD immobilized
T10 construct: immobilized directly on the sensor chip; also called marmoset monkey IL-4R
T10 sequence (Q0PIT7 entry or part of it limits assumed): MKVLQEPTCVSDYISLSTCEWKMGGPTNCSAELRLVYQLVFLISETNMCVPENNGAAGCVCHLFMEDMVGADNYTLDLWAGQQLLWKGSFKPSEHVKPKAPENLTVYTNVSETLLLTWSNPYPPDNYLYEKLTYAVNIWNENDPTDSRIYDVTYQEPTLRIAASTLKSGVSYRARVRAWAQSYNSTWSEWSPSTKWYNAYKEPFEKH

Human IL-4R-Fc [15] = target: T9, Human IL-4R-Fc; test: SPR, hIL-4R-Fc captured, scFv analyte; remark: listed apart in the source

B1: PRO2199 (bispecific antibody, human IgG4 S228P, kappa)
light: DIQMTQSPSSLSASVGDRVTITCQASEDIESYLAWYQQKPGKAPKLLIYRASTLAYGVPSRFSGSGSGTDFTLTISSLQPEDFATYYCLGSSYSTGSNIFGQGTKVEIKRTVAAPSVFIFPPSDEQLKSGTASVVCLLNNFYPREAKVQWKVDNALQSGNSQESVTEQDSKDSTYSLSSTLTLSKADYEKHKVYACEVTHQGLSSPVTKSFNRGEC
heavy: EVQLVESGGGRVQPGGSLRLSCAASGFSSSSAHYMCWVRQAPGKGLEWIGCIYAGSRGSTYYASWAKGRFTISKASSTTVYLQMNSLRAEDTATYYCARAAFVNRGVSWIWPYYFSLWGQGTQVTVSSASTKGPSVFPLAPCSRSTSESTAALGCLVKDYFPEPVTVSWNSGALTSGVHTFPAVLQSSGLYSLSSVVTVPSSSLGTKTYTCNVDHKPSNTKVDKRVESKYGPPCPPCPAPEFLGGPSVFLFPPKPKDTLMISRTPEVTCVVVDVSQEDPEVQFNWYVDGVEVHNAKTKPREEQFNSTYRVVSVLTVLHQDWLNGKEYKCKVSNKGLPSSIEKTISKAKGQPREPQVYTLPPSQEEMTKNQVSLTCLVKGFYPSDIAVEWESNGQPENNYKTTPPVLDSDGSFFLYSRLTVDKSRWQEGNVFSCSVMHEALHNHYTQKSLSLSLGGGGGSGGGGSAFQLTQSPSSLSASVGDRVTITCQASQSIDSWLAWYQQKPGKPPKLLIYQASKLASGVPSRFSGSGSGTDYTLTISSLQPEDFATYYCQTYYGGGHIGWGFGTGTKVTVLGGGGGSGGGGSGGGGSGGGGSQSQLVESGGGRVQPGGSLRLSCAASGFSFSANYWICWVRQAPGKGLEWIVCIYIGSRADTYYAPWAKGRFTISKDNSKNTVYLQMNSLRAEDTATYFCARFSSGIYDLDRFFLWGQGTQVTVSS
notes: IgG4 (S228P) Morrison-H; also called Morrison-H; MorrH
[1]
  IC50, IL-4-induced TARC secretion in human whole blood: < 0.5 nM
[2]
  Mean IC50, human IL-4-induced signaling, stat-6 reporter gene assay: 0.0115 nM
[3]
  IC50 (single analysis), human IL-13-induced signaling, stat-6 reporter gene assay: 0.0113 nM
[4]
  IC50, cynomolgus IL-31-induced IL-31RA/OSMR dimerization (RLU) [table under the graph]: 1.21 nM
[5]
  IC50, IL-4-induced CD23 expression, memory B cells: 2.53 nM
  IC50, IL-4-induced CD23 expression, monocytes (blood donor 1): 0.0697 nM
  IC50, IL-4-induced CD23 expression, naive B cells: 1.1 nM
[6]
  Kd: 0.197 nM
  koff: 5.76e-05 s⁻¹
  kon: 293000 M⁻¹ s⁻¹
[7]
  Kd: 0.0351 nM
  koff: 3.44e-05 s⁻¹
  kon: 980000 M⁻¹ s⁻¹
[8]
  EC50: 0.85 nM
[9]
  EC50: 1.78 nM
[10]
  Mean IC50, human IL-31-induced signaling, IL-31RA/OSMR dimerization assay: 0.142 nM
[11]
  IC50 (read off the curve), human IL-31-induced IL-31RA/OSMR dimerization, with an excess of IL-4R extracellular domain in the medium: ~0.1 nM

B2: PRO1898 (scFv, V domains shown)
VH: EVQLVESGGGLVQPGGSLRLSCAASGFSSSSAHYMCWVRQAPGKGLEWIGCIYAGSRGSTYYASWAKGRFTISRDNSKNTVYLQMNSLRAEDTAVYYCARAAFVNRGVSWIWPYYFSLWGQGTLVTVSS
VL: DIQMTQSPSSLSARVGDRVTITCQASEDIESYLAWYQQKPGKAPKLLIYRASTLAYGVPSRFSGSGSGRDFTLTISSLQPEDFATYYCLGSSYSTGSNIFGTGTKVTVLG
notes: scFv; VL entry ends with LCDR3 (no FR4); also called 44-34-C10-sc08
Cynomolgus IL-4R-Fc
  Kd: 0.0908 nM
  koff: 0.000109 s⁻¹
  kon: 1.2e+06 M⁻¹ s⁻¹
[12]
  IC50: 3.41 ng/mL
Human IL-4R-Fc [13]
  Kd: 0.00791 nM
  koff: 1.7e-05 s⁻¹
  kon: 2.15e+06 M⁻¹ s⁻¹

B3: PRO1899 (scFv, V domains shown)
VH: EVQLVESGGGRVQPGGSLRLSCAASGFSSSSAHYMCWVRQAPGKGLEWIGCIYAGSRGSTYYASWAKGRFTISKASSTTVYLQMNSLRAEDTATYYCARAAFVNRGVSWIWPYYFSLWGQGTQVTVSS
VL: B2 VL with R14S, R69T
notes: scFv; VL entry ends with LCDR3 (no FR4); also called 44-34-C10-sc09
Cynomolgus IL-4R-Fc
  Kd: 0.012 nM
  koff: 0.00014 s⁻¹
  kon: 1.1e+07 M⁻¹ s⁻¹
[12]
  IC50: 2.98 ng/mL
Human IL-4R-Fc [13]
  Kd: 0.00692 nM
  koff: 2.04e-05 s⁻¹
  kon: 2.95e+06 M⁻¹ s⁻¹

B4: PRO1535 (scFv)
chain: DIQMTQSPSSLSASVGDRVTITCQASEDIESYLAWYQQKPGKPPKLLIYRASTLAYGVPSRFSGSGSGTDFTLTISSLQPEDFATYYCLGSSYSTGSNIFGTGTKVTVLGGGGGSGGGGSGGGGSGGGGSESQLVESGGGLVQPGGSLRLSCAASGFSSSSAHYMCWVRQAPGKGLEWIACIYAGSRGSTYYASWAKGRFTISKDNSKNTVYLQMNSLRAEDTAVYFCARAAFVNRGVSWIWPYYFSLWGQGTLVTVSS
[14]
  IC50, neutralization of hIL-4-induced signaling, stat-6 reporter gene assay: 1.15 ng/mL
  IC50, neutralization of hIL-13-induced signaling, stat-6 reporter gene assay: 2.3 ng/mL
Marmoset IL-4R ECD
  Kd: 0.787 nM
  koff: 0.00254 s⁻¹
  kon: 3.23e+06 M⁻¹ s⁻¹
Human IL-4R-Fc [15]
  Kd: 0.0199 nM
  koff: 5.42e-05 s⁻¹
  kon: 2.72e+06 M⁻¹ s⁻¹
